{"source": "paper PMC5921579", "substrate": "O=P(O)(O)O[C@@H]1[C@H](O)[C@H](O)[C@@H](OP(=O)(O)O)[C@H](OP(=O)(O)O)[C@H]1O", "assay": "ADP luciferase assay, nonlinear regression", "assay_type": "biochemical, Trypanosoma brucei", "details": "200 µM ATP, 2 mM MgCl2, 20 mM HEPES, 150 mM NaCl, pH 7.5, 37°C"}
{"protein": "T. brucei IPMK (rIPMK, rTbIPMK) (Trypanosoma brucei brucei TREU927) (protein) MLNICQNLSSVAKPDLIVVSGHKCNIQRGPQTSIGTPTITKRVTAWEALIYLEMLLAEDEAFAILATFVPPLVALLPPENFASDNWVYVHDPASRPLLKSIFAQLKQMSADTHGYNEVMDTTRWEIILVDVTATFHKPCVLDIKLGYVRHSPHTLPDKVERIHKRQLRRSQPIRFCGAHHQFCRQNNDIGECFELEEFTKDMGYALETEESHRRALRSFFTTASLMTTSNTNETTIIDDRHAMARSRCCRQRVQKLVDFLKGHLGQMLLERIAFVSASLLIVYDATGCCGRNVTVSEGINSMNDMVNVYLIDFSRSGDRRLHFPEEVVGFVQGLEKIIFLLS", "values": [{"measurement": "Km", "value": "61.41 (±15.37) µM"}, {"measurement": "Vmax", "value": 617, "unit": "µmol/min/mg"}, {"measurement": "kcat/Km", "value": 167000, "unit": "M⁻¹ s⁻¹"}]}
